The source of these data is patent US12214046B2, “Protein-loaded PLGA nanospheres” (West Virginia University Board of Governors on behalf of …, priority 2019, dated 2025).

The data set can be described thus: In vivo induction of free IL-12 toxicity in healthy mice (blood immunophenotyping by flow cytometry). The following applies: 100 ng or 100 ug retro-orbital, baseline vs 48 h. The arrangement: species or system BALB/c mice. As for the experimental part: Red blood cells were lysed with Red Blood Cell (RBC) Lysis Solution (Miltenyi Biotec, Auburn, CA). Single cell suspensions were split and incubated with optimized lymphoid (L) and myeloid (M) antibody panels according to the manufacturer's instructions: a minimum of 1×104 events were analyzed for each sample.
Two groups of four BALB/c mice (two female and two male per group) were cheek bled by piercing the facial venous plexus with a sterile 4 mm Goldenrod Animal Lancet (Braintree Scientific. Braintree. MA) to gather 100 μL whole blood for baseline immunophenotyping. Immediately following cheek bleeds, each group was given a retro-orbital (r.o.) injection of either a low (100 ng) or high (100 ug) dose of free recombinant mouse (rm) IL-12 (eBiolegend. San Diego. CA) with 0.1% mouse serum albumin (MSA. Sigma. St. Louis, MO) in 150 μL DPBS. At 24 and 48 hours following r.o. injections, mice underwent additional cheek bleeds for immunophenotyping.
Twelve BALB/c mice were cheek bled for 100 μL whole blood (baseline) before being dosed with either 100 ng (L: low dose) or 100 ug (H: high dose) of recombinant mouse (rm) IL-12 via retro-orbital (r.o.) injection. Mice were cheek bled again at 24 and 48 hours (48 h), and blood samples were immunophenotyped via flow cytometry. CD8^−CD4^+ helper T cells (left, white). CD4^−CD8^+ cytotoxic T cells (middle, gray), and CD8^−CD4^+FOXP3^+CD25^+/− regulatory T cells (right. black) were assessed for the extent of PD1^+TIM-3^+ positivity, which can be indicative of exhaustion. Shown in FIG. 17 are T cell data from baseline and 48 h time points. Individual bars (top half) represent group averages+SD. […] Baseline blood samples (n=4:2 male and 2 female per group) were compared to 48 h samples using unpaired two-tailed/tests, * p<0.05, ** p<0.01. *** p<0.001.
Twelve BALB/c mice were cheek bled for 100 μL whole blood (baseline) before being dosed with either 100 ng (L: low dose) or 100 ug (H: high dose) of recombinant mouse (rm) IL-12 via retro-orbital (r.o.) injection. […]
A general note: In flow cytometry, cells or beads pass a laser one at a time.

B1: IL-12: Recombinant mouse IL-12 (p70), immunostimulatory cytokine, purchased from Biolegend (protein, UniProt P43431 23-215; P43432 23-335, looked up)
Interleukin-12 subunit alpha: RVIPVSGPARCLSQSRNLLKTTDDMVKTAREKLKHYSCTAEDIDHEDITRDQTSTLKTCLPLELHKNESCLATRETSSTTRGSCLPPQKTSLMMTLCLGSIYEDLKMYQTEFQAINAALQNHNHQQIILDKGMLVAIDELMQSLNHNGETLRQKPPVGEADPYRVKMKLCILLHAFSTRVVTINRVMGYLSSA
Interleukin-12 subunit beta: MWELEKDVYVVEVDWTPDAPGETVNLTCDTPEEDDITWTSDQRHGVIGSGKTLTITVKEFLDAGQYTCHKGGETLSHSHLLLHKKENGIWSTEILKNFKNKTFLKCEAPNYSGRFTCSWLVQRNMDLKFNIKSSSSSPDSRAVTCGMASLSAEKVTLDQRDYEKYSVSCQEDVTCPTAEETLPIELALEARQQNKYENYSTSFFIRDIIKPDPPKNLQMKPLKNSQVEVSWEYPDSWSTPHSYFSLKFFVRIQRKKEKMKETEEGCNQKGAFLVEKTSTEVQCKGGNVCVQAQDRYYNSSCSKWACVPCRVRS
Regarding B1, the “effect on PMN-MDSC in peripheral blood” value was “Polymorphonuclear-Myeloid-Derived Suppressor Cell (PMN-MDSC) Myelocytosis”; the “effect on T lymphocyte subsets in peripheral blood (PD1+TIM-3+ positivity)” value is “T cell exhaustion of helper, cytotoxic, and regulatory T lymphocyte subsets”; the “effect on circulating Natural Killer (NK) cells” value was “Decrease of Circulating Natural Killer (NK) Cells”.
